The assay addresses PD1-Z CLEAR. Briefly: flow cytometry, T cells 18 h after co-electroporation of PD1-Z RNA and bi-specific antibody RNA, stained with anti-mouse IgG Fab PE and anti-PD1 APC; same quadrant in the controls: EP16 PD1-Z alone 2.42, EP20 No RNA 0.086. For orientation: Flow cytometry measures light scatter and fluorescence of single cells or particles in a stream.

Sequence of PD1-Z CLEAR (chain, as listed by the source limits assumed): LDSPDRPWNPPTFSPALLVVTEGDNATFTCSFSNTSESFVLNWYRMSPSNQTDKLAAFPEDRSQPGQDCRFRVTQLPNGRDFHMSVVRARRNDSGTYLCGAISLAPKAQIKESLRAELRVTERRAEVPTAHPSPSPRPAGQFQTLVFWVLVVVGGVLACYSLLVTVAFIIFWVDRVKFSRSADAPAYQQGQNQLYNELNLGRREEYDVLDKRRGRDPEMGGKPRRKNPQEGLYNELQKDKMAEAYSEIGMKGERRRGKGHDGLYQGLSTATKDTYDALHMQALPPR

B1: 4A11-4D5-4 (bispecific antibody, part only; not given: anti-ErbB2 scFv 4D5-4 and linker, not shown: another chain or arm of the molecule; small tags and cut ends)
scFv: DIQMTQSPSSLSASVGDRVSITCRASQGISSWLAWYQQKPEKAPKSLIYAASNLRSGVPSRFSGSGSGTDFTLTISSLQPEDFATYYCQQYYSYPRTFGQGTKVEIKGGGGSGGGGSGGGGSQLQLQESGPGLVKPSETLSLTCTVSGGSLSRSSFFWGWIRQPPGKGLEWIGSIYYSGSTYYNPSLKSRVTISVDTSKNQFSLKLSSVTAADTAVYYCVRDYDILTGDEDYWGQGTLVTVSS
B1 displayed a percent of cells PD1+ mIgG Fab+ (upper right quadrant) of 57.1.

B2: 4A11-4D5-3 (bispecific antibody, part only; not given: anti-ErbB2 scFv 4D5-3 and linker, not shown: another chain or arm of the molecule; small tags and cut ends)
scFv: B1 scFv
Consider B2, for which the percent of cells PD1+ mIgG Fab+ (upper right quadrant) worked out at 35.6.

The record behind these values is patent US20170258835A1.
